Measurements as given in patent US20240109974A1 (SHANDONG SIMCERE BIOPHARMACEUTICAL, published 2024).
Where a chain is given by its changes, count along the chain named.

B1: 219-Hu2 (antibody, V domains shown)
VH: QVQLVQSGAEVKKPGSSVKVSCKASGYSFTNYWMNWVRQAPGQGLEWMGMIHPSDTETRLNQNFKDKATITADKSTSTAYMELSSLRSEDTAVYYCARGEGLGAARSVSMDYWGQGTLVTVSS
VL: DIQMTQSPSSLSASVGDRVTITCRASQDISNYLNWYQQKPDGTVKLLIYYTAILHSGVPSRFSGSGSGTDYSLTISSLQPEDFATYFCQQGNTLPWTFGQGTKVEIK
notes: also called VH4 + VL5
B2: 219-Hu4 (antibody, V domains shown)
VH: B1 VH with R38K, M48I, I70L, A72V
VL: B1 VL
notes: also called VH6 + VL5
B3: 219-Hu5 (antibody, V domains shown)
VH: B1 VH with K67R, A68V, A72V
VL: B1 VL
notes: also called VH7 + VL5
B4: 224-Hu1 (antibody, V domains shown)
VH: QVQLVQSGAEVKKPGASVKVSCKASGFNNKDIYMHWVRQAPGQGLEWIGRIDPATGNTKHDPKFQDRVTMTSDTSTNTVYMELSSLRSEDTAVYYCARSPYGDFGAMDYWGQGTLVTVSS
VL: DIQMTQSPSSLSASVGDRVTITCTASSSVSSNYLHWYQQKPGKAPKLWIYSTSNLPSGVPSRFSGSGSGTDFTLTISSLQPEDFATYYCHQYHRSPWTFGQGTKVEIK
notes: Humanized form of #224; also called VH8 + VL6
B5: 224-Hu6 (antibody, V domains shown)
VH: B4 VH
VL: B4 VL with K43S, A44S
notes: Humanized form of #224; also called VH8 + VL7
B6: 224-Hu7 (antibody, V domains shown)
VH: QVQLVQSGSELKKPGASVKVSCKASGFNNKDIYMHWVRQAPGQGLEWMGRIDPATGNTKHDPKFQDKAVLSSDTSVSTAYLQISSLKAEDTAVYYCARSPYGDFGAMDYWGQGTLVTVSS
VL: B4 VL with W48L
notes: Humanized form of #224; also called VH9 + VL10
B7: 224-Hu2 (antibody, V domains shown)
VH: B6 VH
VL: B4 VL with K43S, A44S
notes: Humanized form of #224; also called VH9 + VL7
B8: 224-Hu3 (antibody, V domains shown)
VH: B6 VH
VL: B4 VL with W48L, P81A, F84A
notes: Humanized form of #224; also called VH9 + VL8
B9: 224-Hu4 (antibody, V domains shown)
VH: B6 VH
VL: B4 VL
notes: Humanized form of #224; also called VH9 + VL6
B10: 224-Hu5 (antibody, V domains shown)
VH: B6 VH
VL: B4 VL with W48L, F72Y, T73S
notes: Humanized form of #224; also called VH9 + VL9

These binders were tested against T1, Cynomolgus TNFR2-His (Sino 90102-C08H) (cynomolgus monkey, UniProt A0A2K5VET2 132-366) (assay: SPR (Biacore T200), antibody captured on Protein A chip).
T1 construct: Bought protein; also called cynomolgus monkey TNFR2; recombinant cynomolgus monkey TNFR2 protein; not shown: His tag
T1 sequence: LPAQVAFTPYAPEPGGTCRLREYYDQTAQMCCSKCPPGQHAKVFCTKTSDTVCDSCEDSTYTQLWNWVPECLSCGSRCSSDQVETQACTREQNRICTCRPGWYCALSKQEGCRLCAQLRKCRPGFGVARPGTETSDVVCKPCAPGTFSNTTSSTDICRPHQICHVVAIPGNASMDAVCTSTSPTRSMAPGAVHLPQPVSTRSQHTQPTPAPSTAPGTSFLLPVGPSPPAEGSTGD
Summary of the method: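 Multi-cycle kinetics: each cycle captured the test antibody on Protein A (capture time set for 50 RU saturating Rmax), followed by a concentration series of TNFR2, with glycine pH 1.5 regeneration. Affinity KD came from curve fitting.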

Row | Binder | Kd [nM] | koff [s⁻¹] | kon [M⁻¹ s⁻¹]
1 | B1 | 0.681 | 0.000412 | 605000
2 | B2 | 0.576 | 0.000389 | 675000
3 | B3 | 0.626 | 0.000381 | 608000
4 | B4 | 3.95 | 0.000953 | 241000
5 | B5 | 2.63 | 0.000848 | 323000
6 | B6 | 3.12 | 0.000991 | 318000
7 | B7 | 2.95 | 0.000835 | 283000
8 | B8 | 2.97 | 0.000847 | 285000
9 | B9 | 3.17 | 0.000881 | 278000
10 | B10 | 3.31 | 0.000828 | 250000

The binders below were run against T2, human TNFR2 on the surface of CHO-TNFR2 cells (human, UniProt P20333 23-461) (assay: flow cytometry on CHO-TNFR2 cells).
T2 construct: whole, on cells
T2 sequence (looked up): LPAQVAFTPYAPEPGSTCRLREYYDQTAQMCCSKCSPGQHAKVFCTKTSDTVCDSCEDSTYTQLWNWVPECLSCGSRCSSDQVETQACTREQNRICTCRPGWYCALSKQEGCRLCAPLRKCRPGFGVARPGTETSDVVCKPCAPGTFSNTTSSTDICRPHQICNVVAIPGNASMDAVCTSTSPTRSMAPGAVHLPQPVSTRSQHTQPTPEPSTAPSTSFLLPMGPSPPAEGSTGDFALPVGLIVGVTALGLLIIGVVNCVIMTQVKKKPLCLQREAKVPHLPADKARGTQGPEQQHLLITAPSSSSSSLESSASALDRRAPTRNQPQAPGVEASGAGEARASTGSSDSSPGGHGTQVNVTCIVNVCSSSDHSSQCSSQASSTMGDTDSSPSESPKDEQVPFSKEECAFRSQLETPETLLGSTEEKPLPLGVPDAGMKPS
Description: The transfected full-length plasmid of human TNFR2 was purchased from Sino Biological (Cat #HG10417-UT, NCBI Ref Seq: NM_001066.2). The experiment was conducted at a cell density within 80%. The cell medium was discarded; the cells were rinsed with PBS, and digested with 1 ml trypsin for 2 minutes; the digestion was stopped with a Ham's F12 complete medium containing 10% FBS, and then a cell suspension was made. The cell suspension was counted, and then an appropriate amount of cell suspension was centrifuged at 350×g; the supernatant was discarded; a corresponding volume of blocking solution (10% FBS+PBS) at a density of 1×10⁷ cells/ml was added to resuspend the cells, and the mixture was incubated at 4° C. for 30 minutes. After the incubation, the mixture was centrifuged at 350×g to remove the supernatant, and the cells were resuspended in a staining buffer (2% FBS+PBS) to a density of 2×10⁶ cells/ml, and spread onto a 96-well plate, with 50 μl of cell suspension added to each well for later use. The antibody was diluted with PBS for 10-fold gradient dilution from the highest concentration of 20 μg/m (twice the concentration); the diluted antibody was added to the well containing 50 μl of cell suspension, and placed on a microplate shaker for shaking at 500 rpm for 1 minute, so that the antibody was fully mixed with the cells; the mixture was incubated at 4° C. for 1 h. After the incubation, the cells were washed twice with the staining buffer, with 100 μl per well, and centrifuged at 350-g for 5 minutes, and the supernatant was discarded. The PE goat anti-Human IgG Fc antibody (ebioscience, Cat #12-4998-82) was diluted 250-fold with the staining buffer, with a volume of 100 μl per well added to the washed cell wells; the mixture was mixed evenly, and stained at 4° C. for 30 minutes. After the staining, similarly, the cells were washed twice with the staining buffer; finally, the cells were resuspended in 200 μl of staining buffer; signals were detected by a flow cytometer (Thermo Attune NxT). The stronger the signal, the stronger the binding ability of an antibody to TNFR2. The binding curve of an antibody was drawn with antibody concentration as the abscissa and corresponding mean fluorescence intensity (MFI) fold as the ordinate, and fitted with four parameters (GraphPad Prism9) to calculate the EC50 value.

Row | Binder | EC50 [ng/mL]
11 | B1 | 0.027
12 | B2 | 0.018
13 | B3 | 0.018
14 | B4 | 0.04
15 | B5 | 0.03
16 | B6 | 0.03
17 | B7 | 0.03
18 | B8 | 0.03
19 | B9 | 0.03
20 | B10 | 0.04

These binders were tested against T3, Human TNFR2-His (Sino 10417-H08H) (human, UniProt P20333 23-257) (assay: ELISA, human TNFR2-His coated).
T3 construct: Bought protein; also called recombinant human TNFR2 protein; not shown: His tag
T3 sequence (looked up): T1 sequence with G16S, P36S, Q117P, H164N, A210E, G216S, V223M
Description: The test humanized antibody against TNFR2 (as described in Example 1, the antibody was comprised of variable regions linked to IgG-Fc; the WT chimeric antibody also adopted the IgG-Fc structure) was subjected to 3.33-fold gradient dilution, loaded with 100 μl/well, and incubated with shaking at room temperature for 1.5 hours. The plate was washed, and then a working solution of murine anti-human IgG Fc-HRP (diluted at 1:10000) was added, loaded with 100 μl/well, and incubated with shaking at room temperature for 1.0 hour. The plate was washed again, and then the substrate TMB of HRP was added to develop colour. A stop solution was added to stop the reaction, and then a microplate reader (MD 13) was used to read the absorbance value. The binding curve of an antibody was drawn with antibody concentration as the abscissa and corresponding OD value as the ordinate, and fitted with four parameters (GraphPad Prism9) to calculate the EC50 value. The smaller the EC50 value, the stronger the binding ability of an antibody to human/cynomolgus monkey TNFR2. The binding effect of a humanized antibody was normalized to its corresponding human-murine chimeric antibody WT (see SEQ ID NOs: 38-43 for the sequence). The higher the percentage value, the better the binding effect of the humanized antibody. The results of binding of an anti-TNFR2 antibody to a human TNFR2 protein are shown in FIG. 1 and Table 4, and the results of binding of an anti-TNFR2 antibody to cynomolgus monkey TNFR2 are shown in FIG. 2 and Table 4.

Row | Binder | EC50 [ng/mL]
21 | B1 | 18.5
22 | B2 | 16.8
23 | B3 | 17.3
24 | B4 | 10.4
25 | B5 | 11.1
26 | B6 | 9.6
27 | B7 | 10.8
28 | B8 | 12.2
29 | B9 | 10.7
30 | B10 | 11.6
